# T1: XgrDyP (Xylaria grammica, UniProt A0A439DJS1)
# T1 construct: gene EKO27_g488; wild-type, natively secreted, purified from Xylaria grammica culture liquid (AEX, SEC, MonoQ); 49 kDa on SDS-PAGE; heme protein
# T1 sequence (A0A439DJS1 1-493): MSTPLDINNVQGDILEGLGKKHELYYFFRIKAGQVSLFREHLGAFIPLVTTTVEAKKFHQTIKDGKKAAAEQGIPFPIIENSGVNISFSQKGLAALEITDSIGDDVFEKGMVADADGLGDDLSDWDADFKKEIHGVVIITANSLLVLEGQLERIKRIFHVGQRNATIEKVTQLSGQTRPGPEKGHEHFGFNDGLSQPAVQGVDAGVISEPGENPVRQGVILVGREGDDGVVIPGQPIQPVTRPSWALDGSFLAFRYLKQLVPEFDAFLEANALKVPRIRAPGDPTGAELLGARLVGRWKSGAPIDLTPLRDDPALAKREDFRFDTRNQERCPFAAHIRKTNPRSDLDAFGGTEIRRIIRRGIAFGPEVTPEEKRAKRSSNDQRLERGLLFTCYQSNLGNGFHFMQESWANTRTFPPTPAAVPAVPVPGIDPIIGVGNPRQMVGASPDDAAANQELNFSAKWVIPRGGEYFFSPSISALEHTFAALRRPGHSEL
# B1: XgrDyP (Xylaria grammica) (protein)
# chain: T1 sequence (A0A439DJS1 1-493)
# notes: wild-type, natively secreted, purified from Xylaria grammica culture liquid (AEX, SEC, MonoQ); 49 kDa on SDS-PAGE; heme protein
# Assays:
# XgrDyP = molecular target: T1, XgrDyP; assay: spectrophotometric decolorization at […] nm, Lineweaver-Burk; format: biochemical; conditions: apparent; 50 mM sodium citrate pH 4.5, H2O2 co-substrate held constant, room temperature
# purified protein [1] = substrate: CCn1c(=NN=c2sc3cc(S(=O)(=O)O)ccc3n2CC)sc2cc(S(=O)(=O)O)ccc21; assay: purified protein; format: biochemical, Xylaria grammica; conditions: apparent, 50 mM sodium citrate pH 4.5, H2O2 co-substrate held constant, room temperature
# purified protein [2] = substrate: COc1cccc(OC)c1O; assay: purified protein; format: biochemical, Xylaria grammica; conditions: apparent, 50 mM sodium citrate pH 4.5, H2O2 co-substrate held constant, room temperature
Molecule,Km (XgrDyP) [µM],Km (purified protein [1]) [µM],kcat (purified protein [1]) [s⁻¹],kcat/Km (purified protein [1]) [M⁻¹ s⁻¹],Km (purified protein [2]) [µM],kcat (purified protein [2]) [s⁻¹],kcat/Km (purified protein [2]) [M⁻¹ s⁻¹]
Nc1c(S(=O)(=O)O)cc(Nc2ccc(S(=O)(=O)O)c(Nc3nc(Cl)nc(Nc4cccc(S(=O)(=O)O)c4)n3)c2)c2c1C(=O)c1ccccc1C2=O [RBlue5],41,,,,,,
B1,,41,12,287000,12,29,2.5e+06

# Source: paper PMC8469222, “First Dye-Decolorizing Peroxidase from an Ascomycetous Fungus Secreted by Xylaria grammica” (Biomolecules, 2021)
